Laboratory results reported in FireProtDB (doi:10.1006/jmbi.2001.5050).

Conditions: Bacillus caldolyticus, pH 7, CD, sodium cacodylate-HCl 100 mM, reversible: yes, whole UniProt chain shown

B1: Cold shock protein CspB wild type, P41016 (protein)
chain: MQRGKVKWFNNEKGYGFIEVEGGSDVFVHFTAIQGEGFKTLEEGQEVSFEIVQGNRGPQAANVVKL
For B1, the denaturant m value (25 °C, GdnHCl) was 1.77 kcal/mol/M, the “denaturant midpoint (higher = more stable)” value (25 °C, GdnHCl) was 2.68 M and the unfolding free energy (25 °C, GdnHCl) was 1.2 kcal/mol. It also gave an unfolding free energy (70 °C, Thermal, NaCl 2 M) of 2.2 kcal/mol, an unfolding free energy (70 °C, Thermal) of 1.08 kcal/mol and a Tm (Thermal) of 76.9 °C. The “unfolding enthalpy (van 't Hoff)” value (Thermal) was 58.6 kcal/mol.
